Source: patent US10889844B2, “Methods of degrading or hydrolyzing a polysaccharide” (Novozymes A/S, priority 2010, dated 2021)
“Also recorded” adds a separate entry of the source.

Key:
Format in all cases: biochemical
[1] = Filter paper degradation by […] with CelS2 or E7 (FIG. 20), sugars by HPLC
Protocol: Reactions were run in 50 mM Bis-tris/HCl pH 6.5, 1 mM MgCl2, at 50° C. and 900 rpm (horizontal agitation). Control reactions containing the cellulosic substrate suspended in the same buffer as used for the enzyme assays gave no detectable signal for either glucose or cellobiose.
(§1) The mobile phase consisted of 5 mM sulfuric acid and the flow rate used was 1.0 ml/min. Eluted glucose and cellobiose were monitored by recording refractive index. Quantification was obtained by running glucose and cellobiose standards.
(§2) Assays performed to evaluate the function of E7 and CelS2 were set up using a variety of cellulosic substrates (AVICEL®, filter paper and steam exploded wood chips from poplar), at either pH 5.5 (20 mM sodium acetate buffer), 6.5 (20 mM Bis-Tris buffer) or 8.0 (20 mM Tris buffer) in reaction mixtures containing 1.0 mM MgCl2.

[2] = Cellulase boosting properties of CelS2 at various pHs with monocomponent Cel7A; conditions: CelS2 with Cel7A; data not shown
Excerpt: When probing the cellulose boosting properties of CelS2 at various pHs using monocomponent Cel7A as the cellulose hydrolytic component, pH 5.5 came out as the optimal pH for activity. […] The most obvious reason for the decrease in cellulose hydrolysis at increasing pH is the pH stability and efficiency of Cel7A. […] CelS2 is a bacterial enzyme that originates from Streptomyces species that are known to grow optimally on cellulosic substrates in approximately neutral pH conditions (Kontro et al., 2005, Letters in Applied Microbiology 41: 32-38.).

[3] = Time course of filter paper cellulose degradation by […] with CelS2 (FIG. 25)
Protocol: In reactions where no CelS2 was present, 40 μg/ml purified BSA was added in order to maintain an identical protein load. […] Data are mean+/−SD (N=3); error bars indicate SD.

[4] = Filter paper degradation by Cel7A with CelS2 (FIG. 21), cellobiose by HPLC
Protocol: These reactions were conducted in 50 mM sodium acetate pH 5.5, 1 mM MgCl2, at 50° C., 900 rpm (horizontal incubation). Only the cellobiose concentration was quantified as the amount of glucose was minor (less than 5% of the total sugar). Control reactions containing the cellulosic substrate suspended in the same buffer as used for the enzyme assays gave no detectable signal for either glucose or cellobiose.
as §1, §2

[5] = Soluble oxidized products from other cellulosic variants by CelS2 (MALDI-TOF MS); conditions: results not shown
Excerpt: Finally, other cellulosic variants (filter paper and steam exploded sawdust from poplar) were also probed as substrates for CelS2. […] This is most likely due to the high DP of the cellulose in these substrates; cleavages on the crystalline surfaces will not easily lead to release of soluble (=short) cellooligosaccharides when the overall DP is very high. AVICEL® is special in that it is a form of microcrystalline cellulose that has a very low DP (˜60-100; Wallis et al., 1992, Carbohydrate Polymers 17: 103-110 and Mormann and U, 2002, Carbohydrate Polymers 50: 349-353) compared to that of the other substrates tested.

[6] = Degradation of steam exploded saw dust from poplar by […] with CelS2 (FIG. 24); conditions: 1.0 μM CelS2, CELLUCLAST, 1.0 mM reduced glutathione, pH 5.5, 20 hours
Protocol: as §2

[7] = Soluble products released from AVICEL by CBM33 proteins (MALDI-TOF MS, HPAEC)
Protocol: The main peaks are annotated with molecular weight and degree of polymerization (DP).
The DP of the oxidized cellooligosaccharides is indicated by n, where n=3 (the shortest labelled oxidized cellooligosaccharide has a DP of three (=n)). […] Peak annotation was performed by comparing the chromatogram with the chromatogram obtained for a chemically prepared mixture of oxidized cellooligosaccharides with lengths varying from DP1 to DP10.
The main peaks are annotated with molecular weight and degree of polymerization (DP). All annotated peaks are Na adducts of native cellooligosaccharides, oxidized cellooligosaccharides (denoted “ox”) or the sodium salts of oxidized cellooligosaccharides.
Products were analyzed after 20 hours of incubation in 20 mM ammonium acetate buffer pH 5.0, 1 mM MgCl2 at 50° C. and 900 rpm (vertical agitation).
Separation of native and oxidized cellooligosaccharides was achieved using a Dionex Bio-LC equipped with a CarboPack PA1, a column temperature of 30° C. and a flow of 0.25 ml/min, with starting conditions, i.e., 0.1 M NaOH. A stepwise linear gradient with increasing amounts of sodium acetate was applied, going from 0.1 M NaOH and 0.1 M sodium acetate in 10 minutes, then to 0.1 M NaOH and 0.3 M sodium acetate for 25 minutes then increasing to 0.1 M NaOH and 1.0 M sodium acetate at 30 minutes which was kept for 10 minutes. Column reconditioning was achieved by a one minute gradient to initial conditions and subsequent running at initial conditions for 14 minutes. Eluted oligosaccharides were monitored by PAD detection. Chromatograms were recorded and analysed using Chromeleon 7.0 Peak identification was achieved by a procedure including the following steps: oxidized cellooligosaccharides were separated using a Dionex Ultimate 3000 UHPLC system carrying a Hypercarb 150×2.1 mm column (Thermo Scientific) running a gradient of water/0.1% TFA and acetonitrile/0.1% TFA (from 20 to 80% acetonitrile) according to the method developed by Westphal et al., 2010, Journal of Chromatography A 1217: 689-695. Eluted peaks were manually fractioned, freeze-dried, re-dissolved in MilliQ water and identified using MALDI-TOF MS. Pure oxidized cellooligosaccharides with known identity were then analyzed using the HPEAC method described above in order to establish the identity of the oxidized cellooligosaccharides generated by CelS2 and E7.

[8] = Filter paper degradation by HjCel7A with CelS2 over time (FIG. 26); conditions: 40 μg/ml CelS2, 5 μg/ml HjCel7A, pH 5.5, 50° C.
Protocol: By far the major products of these reactions are cellooligosaccharides released by the cellulases (whose activity is boosted by CelS2). In the case of HjCel7A, the main product is cellobiose and formation of this product is shown. RG, indicates the presence of a reductant, in this case reduced glutathione. […] The reactions were run at 50° C.

- activity at pH 6.5 [2]: Less activity
- activity at pH 8.0 [2]: no activity could be detected
- cellulase boosting effect (cellobiose release) [6]: ~2 fold
B1: CelS2: multidomain CBM33 with C-terminal CBM2 from Streptomyces coelicolor A3(2) (SEQ ID NO: 7) (protein)
chain: MVRRTRLLTLAAVLATLLGSLGVTLLLGQGRAEAHGVAMMPGSRTYLCQLDAKTGTGALDPTNPACQAALDQSGATALYNWFAVLDSNAGGRGAGYVPDGTLCSAGDRSPYDFSAYNAARSDWPRTHLTSGATIPVEYSNWAAHPGDFRVYLTKPGWSPTSELGWDDLELIQTVTNPPQQGSPGTDGGHYYWDLALPSGRSGDALIFMQWVRSDSQENFFSCSDVVFDGGNGEVTGIRGSGSTPDPDPTPTPTDPTTPPTHTGSCMAVYSVENSWSGGFQGSVEVMNHGTEPLNGWAVQWQPGGGTTLGGVWNGSLTSGSDGTVTVRNVDHNRVVPPDGSVTFGFTATSTGNDFPVDSIGCVAP
modifications: Streptomyces coelicolor
- increase of glucose yield versus CELLUCLAST only ([1]; no external electron donor, 24 hours): ~3.0 fold
- increase of glucose yield versus CELLUCLAST only ([1]; no external electron donor, 120 hours): ~9 fold
- increase of glucose yield versus CELLUCLAST only ([1]; with external electron donor (1 mM reduced glutathione), 24 hours): ~5 fold
- increase of glucose yield versus CELLUCLAST only ([1]; with external electron donor (1 mM reduced glutathione), 120 hours): ~11 fold
- optimal pH for activity [2]: 5.5
- effect on CELLUCLAST (CC) production of soluble glucose over time ([3]; 10 mg/ml filter paper, 0.8 μg/ml CC, pH 5.5): production of soluble glucose continues
- Glc or Glc2 released without cellulase ([3]; reactions with only CelS2): did not yield detectable amounts of Glc or Glc2
- improvement of Cel7A activity (cellobiose yield) ([4]; absence of external electron donor, 18 hours): 5.5 fold
- improvement of Cel7A activity (cellobiose yield) ([4]; absence of external electron donor, 40 hours): 7.3 fold
- improvement of Cel7A activity (cellobiose yield) ([4]; presence of external electron donor, 18 hours): 6.7 fold
- improvement of Cel7A activity (cellobiose yield) ([4]; presence of external electron donor, 40 hours): 9.8 fold
- soluble oxidized cellooligosaccharides [5]: Soluble oxidized cellooligosaccharides were not observed
- CelS2 activity at pH 8.0 ([7]; AVICEL, FIG. 19): active
- release of soluble native/oxidized cellooligosaccharides from AVICEL ([7]; with external electron donor (ascorbic acid or reduced glutathione)): soluble oligomeric products were observed
- effect on Cel7A activity (cellobiose formation) [8]: boosts the activity of the cellulase, Cel7A; also recorded: prolongs the activity of Cel7A
